Assays:
[1] = biological target: GST-Snail;Flag-p66β (human?;human?, UniProt O95863;Q8WXI9 1-264;1-593, |); experiment: pull-down; p66β enhanced Snail binding; EMSA: 10 mM Tris pH 7.5, 50 mM KCl, 1 mM DTT, 5 mM MgCl2, 2.5% glycerol, 0.05% NP-40, 50 ng/ul poly(dI.dC), 600 fmol probe, 12 ug GST protein in 20 ul; gel 6% 0.5x TBE 4 C. Pull-down: NeutrAvidin beads, 8 h 4 C, washed in IP buffer (50 mM Tris pH 7.5, 150 mM NaCl, 1% Triton X-100); settings: protein: recombinant;recombinant; tags: N-terminal GST (pGEX-4T-1);Flag; label: biotin (probe); blunt
Chain of GST-Snail;Flag-p66β (O95863 whole entry, chain 1 of 2): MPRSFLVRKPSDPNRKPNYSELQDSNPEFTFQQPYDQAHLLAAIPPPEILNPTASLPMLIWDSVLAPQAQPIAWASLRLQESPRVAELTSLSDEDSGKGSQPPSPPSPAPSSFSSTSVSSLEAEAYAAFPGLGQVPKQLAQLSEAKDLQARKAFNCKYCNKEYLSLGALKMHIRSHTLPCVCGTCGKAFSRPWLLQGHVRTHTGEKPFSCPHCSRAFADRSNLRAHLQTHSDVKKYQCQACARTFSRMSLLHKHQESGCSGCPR
Chain of GST-Snail;Flag-p66β (Q8WXI9 whole entry, chain 2 of 2): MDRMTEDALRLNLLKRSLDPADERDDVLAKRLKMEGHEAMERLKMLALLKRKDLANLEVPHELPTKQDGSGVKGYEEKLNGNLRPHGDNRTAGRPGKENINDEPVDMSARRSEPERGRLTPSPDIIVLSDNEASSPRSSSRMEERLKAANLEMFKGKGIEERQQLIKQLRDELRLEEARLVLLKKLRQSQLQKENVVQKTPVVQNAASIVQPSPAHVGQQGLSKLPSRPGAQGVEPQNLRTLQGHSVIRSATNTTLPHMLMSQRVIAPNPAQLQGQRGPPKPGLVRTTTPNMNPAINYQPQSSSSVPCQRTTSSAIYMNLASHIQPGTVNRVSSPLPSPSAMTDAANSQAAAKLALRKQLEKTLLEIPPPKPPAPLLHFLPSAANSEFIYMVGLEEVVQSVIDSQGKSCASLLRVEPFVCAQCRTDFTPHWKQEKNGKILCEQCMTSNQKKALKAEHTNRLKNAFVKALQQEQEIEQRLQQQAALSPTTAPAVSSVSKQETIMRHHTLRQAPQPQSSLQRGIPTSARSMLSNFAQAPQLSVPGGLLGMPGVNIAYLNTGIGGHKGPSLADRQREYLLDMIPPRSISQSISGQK

[2] = biological target: GST-Snail-ΔZn (zinc finger mutant) (UniProt O95863 1-264, H176D;C180A;C210D;H230D;H252D;C259A); experiment: pull-down; EMSA: 10 mM Tris pH 7.5, 50 mM KCl, 1 mM DTT, 5 mM MgCl2, 2.5% glycerol, 0.05% NP-40, 50 ng/ul poly(dI.dC), 600 fmol probe, 12 ug GST protein in 20 ul; gel 6% 0.5x TBE 4 C. Pull-down: NeutrAvidin beads, 8 h 4 C, washed in IP buffer (50 mM Tris pH 7.5, 150 mM NaCl, 1% Triton X-100); settings: protein: recombinant; tags: N-terminal GST; label: biotin (probe); blunt
Chain of GST-Snail-ΔZn (zinc finger mutant) (O95863 whole entry H176D/C180A/C210D/H230D/H252D/C259A): as the sequence (O95863 whole entry, chain 1 of 2) above, with H176D, C180A, C210D, H230D, H252D, C259A counted along it

B1: COL6A2-G-box-WT (dsDNA)
DNA 1: GGCCCCCTCCTCCCATCCGCG
DNA 2: CGCGGATGGGAGGAGGGGGCC
binding result [1]: binds | binding result [2]: no binding
